Results: PMC11891404, “Thermodynamic versus kinetic basis for the high conformational stability of nanobodies for therapeutic applications” (Febs Letters, 2024)

Molecular target: T1, AGT-LM, minor allele of the human alanine glyoxylate aminotransferase (Homo sapiens, AGXT minor allele (AGT-LM), UniProt P21549, strain)
T1 construct: alanine:glyoxylate aminotransferase, human, minor allele (AGT-LM)
Experiment: SPR; Biacore T200; His-tagged NB-AGT captured on a Ni-loaded NTA chip and covalently immobilised (EDC/NHS); AGT-LM injected at 0.74-60 nM in HBS-EP+ (10 mM HEPES, 150 mM NaCl, 3 mM EDTA, 0.05% Tween 20), single cycle kinetics, 120 s pulses, 70 uL/min; 25 °C; 1:1 interaction model
Settings: both partners purified

Binder | Kd [nM]
NB-AGT-1 (VHH, also in the AlphaFold 2 model files of Data S1; Selected by phage display from an immunised llama; Covalently immobilised on the NTA chip after capture by its His tag; also called NB-1; nanobody 1 raised against AGT-LM; source: E. coli BL21 (DE3), pET-24(+), purified (IMAC, SuperDex 75 SEC); not shown: His6, C-terminal, kept) VHH: QVQLVESGGGLVQAGDSLRLSCAASGLAFSTYGMGWFRQAPGKEREFVADINWSGSSTYVADSVKGRFTISRDNAKNTVYLQMNRLKPEDTAVYSCAAAPGGGLRAGPSRRYEYWGQGTQVTVSS | 3.8
NB-AGT-6 (VHH, also in the AlphaFold 2 model files of Data S1; Selected by phage display from an immunised llama; Covalently immobilised on the NTA chip after capture by its His tag; also called NB-6; nanobody 6 raised against AGT-LM; source: E. coli BL21 (DE3), pET-24(+), purified (IMAC, SuperDex 75 SEC); not shown: His6, C-terminal, kept) VHH: QVQLVESGGGSVQTGGSLRLACVASGFTSDHYSIGWFRQAPGKEREGVSCIGMHDGSTKYAESVKGRFTISSDNDKNTVYLQMNSLKPEDTAVYYCAAGPLVLLDSDTYQSWGEGTQVTVSS | ~0.005
